Where two headings read alike, the source gives them in different places.
Assays:
[1] = tested on: E. coli BL21(DE3)pLysS; assay: MICs of beta-lactams on LB-agar for E. coli expression strains (Example 4); type: cell-based, Escherichia coli; conditions: Table 10; for MIC of the antibiotic for the empty strain BL21(DE3)pLysS: no recombinant protein; for MIC of Amoxicillin for E. coli strain expressing the protein / MIC of Augmentin for E. coli strain expressing the protein / MIC of Rocephine for E. coli strain expressing the protein: BL21(DE3)pLysS + protein, IPTG induced, LB-agar, 37° C. overnight
Protocol: The pre-cultures are then inoculated at 1/40th in 5 ml of LB+50 μg/ml Kanamycin medium and when the OD600 reaches a value of 0.6 (about 2 hours), the production of protein is induced by the addition of final IPTG 1 mM and continues for 1.5 hours at 37° C. with stirring at 200 rpm.
The dishes were incubated at 37° C. overnight and the results were recorded the following day. The MICs correspond to the lowest concentration of antibiotic at which the highest inoculum doesn't grow.

[2] = tested on: E. coli BL21(DE3)pLysS; assay: MICs of beta-lactams and macrolide on LB-agar for E. coli expression strains (Example 6); type: cell-based, Escherichia coli; conditions: Table 14
Protocol: The pre-cultures are then inoculated at 1/40th in 5 ml of LB+50 μg/ml Kanamycin medium and when the OD600 nm reaches a value of 0.6 (about 2 hours), the production of protein is induced by the addition of 1 mM final IPTG and continued for 1.5 hours at 37° C. with stirring at 200 rpm.
The dishes are incubated at 37° C. over night and the results are recorded the next day. The MICs correspond to the lowest concentration of antibiotic at which the highest inoculum no longer grows.

[3] = cited from earlier work
[4] = pH-STAT beta-lactam hydrolysis assay, substrate Augmentin; type: biochemical; conditions: 37° C., pH=7.0
Protocol: (§1) The purified proteins were tested on different beta-lactams (amoxicillin (Apollo Scientific), Augmentin® (GlaxoSmithKline) and Ceftriaxone (Rocéphine®, Roche)). The assays are carried out at pH-STAT (Titrino 2.5, Metrohm) in a reaction volume of 25 ml at 37° C. and pH=7.0. The substrates are prepared at 4 g/l in a 0.3 mM Tris buffer, 150 mM NaCl. The enzyme hydrolysis of the beta-lactam nuclei releases an acid and induces a drop in the pH. The principle of the assay is to compensate for the acidification by the addition of 0.1 N sodium hydroxide so as to remain at pH=7.0. In these conditions, one unit corresponds to 1 μmole of sodium hydroxide added per minute, that is, one μmole of beta-lactam hydrolysed per minute. Table 3 below lists the specific activities measured for each protein on the three substrates (mean of 6 replicates).

[5] = pH-STAT beta-lactam hydrolysis assay, substrate ceftriaxone; type: biochemical; conditions: pH=7.0; for Specific activity, substrate Ceftriaxone: 37° C.
Protocol: as §1
The purified proteins were tested on different antibiotics: Ceftriaxone (RocéphineED, Roche) for the beta-lactams and kanamycin for the Aminoglycosides. The assays on ceftriaxone were carried out at pH-STAT (Titrino 2.5, Metrohm) in a reaction volume of 25 ml at 37° C. and pH=7.0. The substrates are prepared at 4 g/l in a 0.3 mM Tris buffer, 150 mM NaCl. The enzyme hydrolysis of the beta-lactam nuclei releases an acid and results in a drop in the pH. The principle of the assay is to compensate this acidification by the addition of 0.1 N sodium hydroxide so as to remain at pH=7.0. In these conditions, one unit corresponds to 1 μmol of sodium hydroxide added per minute, that is one μmol of beta-lactam hydrolyzed per minute.

[6] = pH-STAT beta-lactam hydrolysis assay, substrate amoxicillin; type: biochemical; conditions: 37° C., pH=7.0
Protocol: as §1

[7] = Acetyl-transferase indirect colorimetric assay (acetyl-CoA, DTNB); type: biochemical; conditions: Table 12; 500 μM Kanamycin, 500 μM AcetylCoA, 250 μM DTNB; 1 unit = one nanomole of TNB released per minute at 37° C.; n=6
Protocol: The activity of acety-transferase is measured by an indirect colorimetric assay with acetyl-CoA (Sigma-Aldrich) as acetyl group donor, Kanamycin as acceptor and Elleman reagent (DTNB, Sigma-Aldrich) to titrate the CoEnzymeA reduced (—SH) molecules released during the enzyme reaction [Ref]. The reaction takes place on a microtitration plate with increasing quantities of purified enzymes, in a final volume of 200 μl and with concentrations of 500 μM Kanamycin, 500 μM AcetylCoA and 250 μM DTNB. In these experimental conditions, the ion TNB^2 absorbs at 412 nm with an ε(λ=412 nm) apparent 19 000 M^−1.well^−1 (well of a 96 well plate filled with 200 μl) and 1 unit corresponds to one nanomole of TNB^2 released per minute at 37° C.

[8] = BL21(DE3)pLysS + protein, IPTG induced, LB-agar, 37° C. over night
[9] = Table 3, proteins produced in Pichia pastoris, substrate 4 g/l, mean of 6 replicates
[10] = Table 5 (Example 2), proteins produced in Pichia pastoris
[11] = Table 7 (Example 3), proteins produced in Pichia pastoris
[12] = Table 9, proteins produced in Escherichia coli BL21(DE3) pLysS
[13] = Table 3, proteins produced in Pichia pastoris, substrate 4 g/l, 1 U = 1 μmole beta-lactam hydrolysed per minute, mean of 6 replicates
[14] = Table 9, proteins produced in Escherichia coli BL21(DE3) pLysS (periplasm, non-glycosylated)

CC1(C)S[C@@H]2[C@H](NC(=O)[C@H](N)c3ccc(O)cc3)C(=O)N2[C@H]1C(=O)O [Amoxicillin, amoxicillin, reference compound]
MIC of the antibiotic for the empty strain BL21(DE3)pLysS [1]: <0.5 μg/ml | MIC of the antibiotic for the empty strain BL21(DE3)pLysS ([2]; empty strain, no recombinant protein): <2 μg/ml | Patients with acute diarrhoea induced by antibiotics ([3]; patients receiving antibiotic therapy): 5-10%

CO/N=C(\C(=O)N[C@@H]1C(=O)N2C(C(=O)O)=C(CSc3nc(=O)c(O)nn3C)CS[C@H]12)c1csc(N)n1 [Rocephine, Ceftriaxone, reference compound]
MIC of the antibiotic for the empty strain BL21(DE3)pLysS [1]: <0.5 μg/ml

CC[C@H]1OC(=O)[C@H](C)[C@@H](O[C@H]2C[C@@](C)(OC)[C@@H](O)[C@H](C)O2)[C@H](C)[C@@H](O[C@@H]2O[C@H](C)C[C@H](N(C)C)[C@H]2O)[C@](C)(O)C[C@@H](C)CN(C)[C@H](C)[C@@H](O)[C@]1(C)O [azithromycin]
Patients with acute diarrhoea induced by antibiotics ([3]; human, in vivo): 2-5%

B1: EreB: SEQ ID 5; erythromycin esterase, P05789.1, 419 aa (protein, listed as Escherichia coli)
chain: MRFEEWVKDKHIPFKLNHPDDNYDDFKPLRKIIGDTRVVALGENSHFIKEFFLLRHTLLRFFIEDLGFTTFAFEFGFAEGQIINNWIHGQGTDDEIGRFLKHFYYPEELKTTFLWLREYNKAAKEKITFLGIDIPRNGGSYLPNMEIVHDFFRTADKEALHIIDDAFNIAKKIDYFSTSQAALNLHELTDSEKCRLTSQLARVKVRLEAMAPIHIEKYGIDKYETILHYANGMIYLDYNIQAMSGFISGGGMQGDMGAKDKYMADSVLWHLKNPQSEQKVIVVAHNAHIQKTPILYDGFLSCLPMGQRLKNAIGDDYMSLGITSYSGHTAALYPEVDTKYGFRVDNFQLQEPNEGSVEKAISGCGVTNSFVFFRNIPEDLQSIPNMIRFDSIYMKAELEKAFDGIFQIEKSSVSEVVYE
MIC of Amoxicillin for E. coli strain expressing the protein [2, 8]: <2 µg/mL | MIC of Augmentin for E. coli strain expressing the protein [2, 8]: <2 µg/mL | MIC of Erythromycin for E. coli strain expressing the protein [2, 8]: >1024 µg/mL

B2: TEM36-GGGGGG-CTXM16: SEQ ID 8; fusion TEM36 and CTXM16 with flexible 6 glycine linker, 532 aa (protein)
chain: HPETLVKVKDAEDQLGARVGYIELDLNSGKILESFRPEERFPMVSTFKVLLCGAVLSRVDAGQEQLGRRIHYSQNDLVEYSPVTEKHLTDGMTVRELCSAAITMSDNTAANLLLTTIGGPKELTAFLHNMGDHVTRLDRWEPELNEAIPNDERDTTMPAAMATTLRKLLTGELLTLASRQQLIDWMEADKVAGPLLRSALPAGWFIADKSGAGERGSRGIIAALGPDGKPSRIVVIYTTGSQATMDERDRQIAEIGASLIKHWGGGGGGQTSAVQQKLAALEKSSGGRLGVALIDTADNTQVLYRGDERFPMCSTSKVMAAAAVLKQSETQKQLLNQPVEIKPADLVNYNPIAEKHVNGTMTLAELSAAALQYSDNTAMNKLIAQLGGPGGVTAFARAIGDETFRLDRTEPTLNTAIPGDPRDTTTPRAMAQTLRQLTLGHALGETQRAQLVTWLKGNTTGAASIRAGLPTSWTAGDKTGSGGYGTTNDIAVIWPQGRAPLVLVTYFTQPQQNAESRRDVLASAARIIAEGL
modifications: TEM36-GGGGGG-CTXM16
notes: fusion TEM36 and CTXM16 with flexible 6 glycine linker, 532 aa
Specific activity, substrate Augmentin [4, 9]: 42 ± 33 U/mg | Specific activity, substrate Augmentin [4, 10]: 42 ± 14 U/mg | Specific activity, substrate Augmentin [4, 11]: 34 ± 6 U/mg | Specific activity, substrate Augmentin [4, 12]: 24 ± 5 U/mg | Specific activity, substrate Ceftriaxone [5, 9]: 114 ± 44 U/mg | Specific activity, substrate Ceftriaxone [5, 10]: 123 ± 35 U/mg | Specific activity, substrate Ceftriaxone [5, 11]: 141 ± 55 U/mg | Specific activity, substrate Ceftriaxone [5, 12]: 138 ± 32 U/mg | Specific activity, substrate Amoxicillin [6, 13]: 695 ± 98 U/mg | Specific activity, substrate Amoxicillin [6, 10]: 890 ± 83 U/mg | Specific activity, substrate Amoxicillin [6, 11]: 890 ± 176 U/mg | Specific activity, substrate Amoxicillin [6, 14]: 633 ± 99 U/mg

B3: TEM-36: SEQ ID 1; clavulanic acid-resistant class A β-lactamase (IR-TEM, aminopenicillinase), 263 aa; constituent enzyme (protein, listed as Escherichia coli)
chain: HPETLVKVKDAEDQLGARVGYIELDLNSGKILESFRPEERFPMVSTFKVLLCGAVLSRVDAGQEQLGRRIHYSQNDLVEYSPVTEKHLTDGMTVRELCSAAITMSDNTAANLLLTTIGGPKELTAFLHNMGDHVTRLDRWEPELNEAIPNDERDTTMPAAMATTLRKLLTGELLTLASRQQLIDWMEADKVAGPLLRSALPAGWFIADKSGAGERGSRGIIAALGPDGKPSRIVVIYTTGSQATMDERDRQIAEIGASLIKHW
Specific activity, substrate Augmentin [4, 9]: 97 ± 74 U/mg | Specific activity, substrate Augmentin [4, 10]: 97 ± 74 U/mg | Specific activity, substrate Augmentin [4, 11]: 97 ± 74 U/mg | Specific activity, substrate Augmentin [4, 12]: 385 ± 31 U/mg | MIC of Amoxicillin for E. coli strain expressing the protein [1]: >1024 µg/mL | MIC of Augmentin for E. coli strain expressing the protein [1]: 512 µg/mL | MIC of Rocephine for E. coli strain expressing the protein [1]: <0.5 µg/mL | Specific activity, substrate Ceftriaxone [5, 9]: 0 U/mg | Specific activity, substrate Ceftriaxone [5, 10]: 0 U/mg | Specific activity, substrate Ceftriaxone [5, 11]: 0 U/mg | Specific activity, substrate Ceftriaxone [5, 12]: 1 ± 1 U/mg | Specific activity, substrate Amoxicillin [6, 13]: 816 ± 90 U/mg | Specific activity, substrate Amoxicillin [6, 10]: 816 ± 90 U/mg | Specific activity, substrate Amoxicillin [6, 11]: 816 ± 90 U/mg | Specific activity, substrate Amoxicillin [6, 14]: 3593 ± 87 U/mg | MIC of Amoxicillin for E. coli strain expressing the protein [2, 8]: >2048 µg/mL | MIC of Augmentin for E. coli strain expressing the protein [2, 8]: 512 µg/mL

B4: CTX-M16: SEQ ID 2; class A β-lactamase (cefotaximase), Genbank AAK32961, 263 aa; constituent enzyme (protein, listed as Escherichia coli)
chain: QTSAVQQKLAALEKSSGGRLGVALIDTADNTQVLYRGDERFPMCSTSKVMAAAAVLKQSETQKQLLNQPVEIKPADLVNYNPIAEKHVNGTMTLAELSAAALQYSDNTAMNKLIAQLGGPGGVTAFARAIGDETFRLDRTEPTLNTAIPGDPRDTTTPRAMAQTLRQLTLGHALGETQRAQLVTWLKGNTTGAASIRAGLPTSWTAGDKTGSGGYGTTNDIAVIWPQGRAPLVLVTYFTQPQQNAESRRDVLASAARIIAEGL
Specific activity, substrate Augmentin [4, 9]: 0 U/mg | Specific activity, substrate Augmentin [4, 10]: 0 U/mg | Specific activity, substrate Augmentin [4, 11]: 0 U/mg | Specific activity, substrate Augmentin [4, 12]: 0 U/mg | MIC of Amoxicillin for E. coli strain expressing the protein [1]: >1024 µg/mL | MIC of Augmentin for E. coli strain expressing the protein [1]: 4 µg/mL | MIC of Rocephine for E. coli strain expressing the protein [1]: 512 µg/mL | Specific activity, substrate Ceftriaxone [5, 9]: 306 ± 44 U/mg | Specific activity, substrate Ceftriaxone [5, 10]: 306 ± 44 U/mg | Specific activity, substrate Ceftriaxone [5, 11]: 306 ± 44 U/mg | Specific activity, substrate Ceftriaxone [5, 12]: 158 ± 14 U/mg | Specific activity, substrate Cetriaxone ([5]; Table 12, pH-STAT 37° C., AAC and fusion from E. coli, CTX-M16 from P. pastoris, n=6): 336 ± 5 U/mg | Specific activity, substrate Amoxicillin [6, 13]: 31 ± 2 U/mg | Specific activity, substrate Amoxicillin [6, 10]: 31 ± 2 U/mg | Specific activity, substrate Amoxicillin [6, 11]: 31 ± 2 U/mg | Specific activity, substrate Amoxicillin [6, 14]: 21 ± 1 U/mg | Specific activity, substrate Kanamycin [7]: 0 U/mg

Source: patent publication US20170354706A1, “HYBRID PROTEINACEOUS MOLECULE CAPABLE OF INHIBITING AT LEAST ONE ANTIBIOTIC AND PHARMACEUTICAL COMPOSITION CONTAINING IT” (priority 2014, published 2017)
